“Also recorded” adds a separate entry of the source.
Tests used:
[1] = system: cells embedded in PEG-heparin hydrogel, transfected with calcium sensor; test: Response to neurotransmitter glutamate, calcium sensor fluorescence in hydrogel-embedded cells; format: cell-based, human; conditions: after addition of glutamate
Text: FIG. 5 depicts the results of the measurement of the total fluorescence intensities in the case of addition of the neurotransmitter glutamate. […] The cells in image A2 are embedded in a PEG-heparin hydrogel system before the addition of the neurotransmitter glutamate. Images A3 and A4 show a high magnification of a Gcampf6-transfected cell which is embedded in the PEG-heparin hydrogel system.

[2] = system: primary human cortical cells (PHCCs); test: Aβ42 neurotoxicity model, PHCCs in 3D star-PEG-heparin hydrogel; format: cell-based
Procedure: FIG. 11 contains a graphic depiction of the preparation of the PEG-heparin hydrogel for the investigation of the effect of amyloid β 42 peptides (Aβ42) in primary human cortical cells. Cells of the second passage were placed into a Petri dish in a density of 5×10^3 per cm^2 in step 1. For the purposes of the Aβ42 neurotoxicity model, cells of the second passage were likewise placed in a Petri dish in a density of 5×10^3/cm^2 and incubated for 48 hours with 2 μM Aβ42 (step 1′).
After 48 hours, the cells were harvested and resuspended in phosphate-buffered saline solution (PBS) at a concentration of 8×10^6 cells per ml in a step 2. Then, the same volume of heparin solution (45 μg/μl in PBS) was added and the two were mixed to give a final concentration of 4×10^6 cells/ml in a step 3. In the case of the coating of the extracellular environment of the cells embedded in the PEG-heparin hydrogel system with […], a mixture of Aβ42 peptide in a concentration of 40 μM was added in step 3′.
To cast a gel, the cell solution, PBS and heparin in step 3 were mixed with the same volume of star-PEG. […] The reactions for gel formation last two minutes. After the casting, the gels were placed into 24-well culture plates, with each well containing a culture medium. To culture and to incubate the gels, a ratio of 5% CO2/95% air at 37° C. was used. Gels can be cultured until the desired time point.
Amyloid β 42 peptide, a misfolded protein relevant to Alzheimer's disease, was also used in order to model its toxicity and its effects on neuronal networks. The method according to the invention using a three-dimensional hydrogel system for culturing can, in this way, also be used as a model for neurodegenerative diseases. […] To investigate whether amyloid β 42 (Aβ42) influences the neuronal network, cultures were generated by treating the cells with Aβ42 before introduction into the hydrogel system (intracellular Aβ42) or incubating the hydrogels with Aβ42 before introduction of the cells (extracellular Aβ42). […] Furthermore, the three-dimensional hydrogel system can be used as a practical screening platform for testing compounds which might restore the neurogenic capacity of human stem cells and the formation of neuronal networks even in the presence of Aβ42.
To use gels which were pretreated with amyloid β 42 (Aβ42), the cells were incubated with 2 μM Aβ42 for 48 hours prior to the cell collection from the culture vessel and prior to the embedding of the cells in the hydrogel. To generate a gel environment which contains Aβ42, the cells were first dissolved in 4 μl of 100 μM Aβ42 peptide in PBS. 6 μl of the heparin solution (0.448 mg of HEP-HM6 dissolved in 6 μl of PBS) and 10 μl of the starPEG-MMP solution (0.347 mg of starPEG-MMP dissolved in 10 μl of PBS) were added and, as described above, mixed. In this gel mixture, the concentration of Aβ42 is 20 μM and the concentration of the cells is 2×10^6 cells per ml.
To use gels which were pretreated with amyloid β 42 (Aβ42), the cells were incubated with 2 μM Aβ42 for 48 hours prior to the cell collection from the culture vessel and prior to the embedding of the cells in the hydrogel.
All hydrogels were fixed with ice-cold paraformaldehyde and incubated at room temperature for 1.5 h, followed by a wash in PBS overnight at 4° C. […]
For the hydrogels, fluorescence recordings were carried out using a Leica SP5 inverted confocal and multiphoton microscope. […]

[3] = system: primary human cortical cells (PHCCs); test: Effect of IL-4 on Aβ42 toxicity, PHCCs in star-PEG-HEP hydrogels; format: cell-based
Procedure: To test whether IL-4 acts in humans in a similar manner as could be previously shown in zebrafish investigations for example, the abovementioned star-PEG-HEP hydrogels containing PHCCs were used. To this end, hydrogels containing embedded PHCCs were prepared and they were incubated with Aβ42, as already described. Each test setup contained a positive (with Aβ42) and a negative control group (without Aβ42) as well as an experimental group with Aβ42 and IL-4. In the experimental group, the star-PEG-HEP gels containing embedded PHCCs were cultured with Aβ42 and, at the same time, in the presence of 100 ng/ml IL-4 in the medium. After a three-week culturing phase, the samples were fixed and immunologically stained with respect to GFAP and SOX2 in order to investigate effects of IL-4 on the neural stem and progenitor cells. The nucleus dye DAPI was used in order to show entire cells. […] It can be concluded that the treatment with interleukin 4 stimulates GFAP-positive cells in relation to proliferation to form more neuronal stem and progenitor cells. IL-4 thus increases the neuroplasticity of the embedded PHCCs despite the presence of neurotoxic Aβ42. […] IL-4 is thus an important candidate for future therapies against Aβ42-mediated neurodegeneration.

[4] = Aβ42-treated gels compared with control gels

N[C@@H](CCC(=O)O)C(=O)O [glutamate]
fluorescence signal of calcium sensor (intracellular calcium influx) [1]: increased fluorescence signal; also recorded: increase in the intracellular calcium level

Aβ42: Amyloid β 42 peptide, a misfolded protein relevant to Alzheimer's disease
number of branches per network [2, 4]: significantly lower
number of cells [2, 4]: significantly reduced
number of networks [2, 4]: significantly reduced
effect on axons ([2]; Aβ42 treatment): dystrophy of axons
neuronal network formation ([2]; intracellular and extracellular Aβ42, compared with control gels): significant impairment
cell count (GFAP-positive and SOX2-positive cells) ([3]; Aβ42-treated cultures vs untreated control, three-week culture): strong decline

B1: IL-4: interleukin 4 (protein, UniProt P05112 25-153, looked up)
Interleukin-4: HKCDITLQEIIKTLNSLTEQKTLCTELTVTDIFAASKNTTEKETFCRAATVLRQFYSHHEKDTRCLGATAQQFHRHKQLIRFLKRLDRNLWGLAGLNSCPVKEANQSTLENFLERLKTIMREKYSKCSS
proliferation of human neuronal stem cells ([3]; Aβ42 plus 100 ng/ml IL-4): activates the proliferation
cell count ([3]; Aβ42 plus 100 ng/ml IL-4 in the medium, three-week culture): altogether comparable with the control cultures without Aβ42 treatment

Reference: US20190247546A1, “METHOD FOR FORMING A FUNCTIONAL NETWORK OF HUMAN NEURONAL AND GLIAL CELLS” (LEIBNIZ-INSTITUT FÜR POLYMERFORSCHUNG DRESDEN E.V., priority 2016, published 2019)
